Reference: paper PMC10885737 (Journal of molecular biology, 2023)
Like-named read-outs stand apart in the source and are kept apart here.

Key:
[1] = target: disulfide-crosslinked A14C/E45C HIV-1 CA tubes (HIV-1); assay: co-sedimentation
[2] = target: soluble, disulfide-crosslinked HIV-1 CA hexamer (A14C/E45C/W184A/M185A) (HIV-1); assay: nanoDSF
[3] = target: soluble disulfide-stabilized HIV-1 CA hexamer (A14C/E45C/W184A/M185A) (Human immunodeficiency virus type 1 group M subtype B, UniProt P12493, A146C/E177C/M317A/W316A); assay: biochemical; assay type: binding
[4] = target: soluble, disulfide-crosslinked HIV-1 CA hexamer (A14C/E45C/W184A/M185A) (HIV-1); assay: cryo-EM structure
[5] = target: soluble, disulfide-crosslinked HIV-1 CA hexamer (A14C/E45C/W184A/M185A) (HIV-1); assay: nanoDSF; remark: listed apart in the source
[6] = Observation of proteolysis during protein preparation; assay type: physicochemical; settings: recombinant protein preparation from E. coli

Molecule “full-length recombinant PQBP1 (polyglutamine binding protein 1) (from UniProt O60828 1-265) (natural protein)” has a percent of input pelleted with the CA tubes [1] of 17% and a shift in apparent Tm of CA [2] of 2 °C.

Molecule Ac-EIIAEDYDDDPVDYE-NH2 [15–6] has a Kd [3] of 54 ± 0.4 nM.

In the case of “PQBP1 Nt peptide (residues 1–46) (from UniProt O60828 1-46)”, the Kd [2] is reported as 503 nM.

For “soluble, disulfide-crosslinked HIV-1 CA hexamer (A14C/E45C/W184A/M185A) (complex)”, the stoichiometry N [4] was 6.

With Ac-EIIAEDYDDDPVDYE-NH2 [PQBP1 15-mer peptide 15–6] the Kd [5] was 54 nM.

B1: DE-to-G: recombinant DE-to-G PQBP1 mutant protein (protein)
chain: MPLPVALQTRLAKRGILKHLEPEPGGGIIAEDYGGGPVDYEATRLEGLPPSWYKVFDPSCGLPYYWNADTDLVSWLSPHDPNSVVTKSAKKLRSSNADAEEKLDRSHDKSDRGHDKSDRSHEKLDRGHDKSDRGHDKSDRDRERGYDKVDRERERDRERDRDRGYDKADREEGKERRHHRREELAPYPKSKKAVSRKDEELDPMDPSSYSDAPRGTWSTGLPKRNEAKTGADTTAAGPLFQQRPYPSPGAVLRANAEASRTKQQD
modifications: left off: His-tag (with Gly-Gly linker), C-terminal, state not stated
With B1 the “Susceptibility to proteolysis” value [6] was “prone to proteolysis”.
